From article PMC7619190 (2026)
Where no end group is shown, it is not given here. [ ]: non-standard residue; d: D form. pY = N[C@@H](Cc1ccc(OP(=O)(O)O)cc1)C(=O)O

Biological target: human SRC SH2 domain (Gln147-Lys252), wild type (human, UniProt P12931-1 147-252)
Assay: ITC; SH2 pretreated with 1 mM TCEP

EPQ[pY]EEIP [optimized SRC binding phosphopeptide (EPQpYEEIP)] was tested, and the Kd was 293 nM.
